Five molecules from PMC12112095, “Insights into Chemoreceptor MCP2201-Sensing D-Malate” (International Journal of Molecular Sciences, 2025) can be followed below.

The Kd is the equilibrium constant for the complex coming apart. Read a low Kd as a tighter complex. A word on the stoichiometry N: it is a count of units in the complex or per binding partner.

The target of test [1] is T1, MCP2201 (Comamonas thiooxydans, UniProt A0ABF7PFR0).
T1 construct: gene CtCNB1_2201; LBD (residues 58–203), N-terminal His6-tag
T1 sequence (A0ABF7PFR0 58-203): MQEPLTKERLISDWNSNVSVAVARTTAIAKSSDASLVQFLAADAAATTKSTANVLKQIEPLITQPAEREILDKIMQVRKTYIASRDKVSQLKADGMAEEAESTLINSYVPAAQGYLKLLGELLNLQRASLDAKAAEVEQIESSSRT
Put plainly: ITC; crystal structure at […] Å. In kind it is binding.

Test [2] deals with T2, MCP2201 (Comamonas thiooxydans, UniProt A0ABF7PFR0, T105A).
T2 construct: gene CtCNB1_2201; T105A LBD
As to the kind of experiment: ITC. The format is binding.

The target of test [3] is T1, MCP2201. Put plainly: analytical ultracentrifugation (ligand-induced LBD dimerization). In kind it is binding.
In test [4] the target is MCP2201 LBD mutant T105A (T105A LBD) (Comamonas testosteroni CNB-1). Put plainly: AUC; ligand-free; Beckman XL-I, 60,000 x g, 7 h, 4 °C.
For test [5] the target is unchanged. Put plainly: AUC; in the presence of citrate; Beckman XL-I, 60,000 x g, 7 h, 4 °C.
The target is the same in test [6]. As to the kind of experiment: AUC; in the presence of D-malate; Beckman XL-I, 60,000 x g, 7 h, 4 °C.
In test [7] the target is ligand-binding domain of MCP2201 (MCP2201 LBD) (Comamonas testosteroni CNB-1). As to the kind of experiment: AUC; ligand-free; Beckman XL-I, 60,000 x g, 7 h, 4 °C.
Test [8] has the same target. As to the kind of experiment: AUC; in the presence of L-malate; Beckman XL-I, 60,000 x g, 7 h, 4 °C.
Test [9] shares this target. As to the kind of experiment: ITC; dilution: 1.1 mM protein in 10 mM D-malate, 20 mM Tris pH 7.5, 150 mM NaCl injected into the same buffer, 25 °C; oligomer dissociation model; dimer to monomers. On the technique in general: ITC needs no label: the signal is the heat of the interaction.
Test [10] has the same target. Put plainly: AUC; in the presence of D-malate; Beckman XL-I, 60,000 x g, 7 h, 4 °C.

For `O=C(O)C[C@@H](O)C(=O)O` [D-malate], the Kd stood at 40 ± 3.3 µM on MCP2201 [1] and 5.5 ± 0.01 µM on MCP2201 [2].

On to `O=C(O)CC(O)C(=O)O` (stereo in doubt) [L-malate], for which, at MCP2201 [3], the “analytical ultracentrifugation (ligand-induced LBD dimerization)” value is given as “the D-malate-bound MCP2201 LBD predominately occurred as a dimer, the same as the L-malate-bound LBD (Figure 3B)”.

As to `O=C(O)CC(O)(CC(=O)O)C(=O)O` [citrate], the Kd on MCP2201 [2] was 670 ± 270 µM.

In the case of “MCP2201 LBD mutant T105A (T105A LBD) (domain or fragment)”, the stoichiometry N in test [4], in test [5] and in test [6] was 2 each time.

Regarding “ligand-binding domain of MCP2201 (MCP2201 LBD) (domain or fragment)”, the stoichiometry N in [7], in test [8] and in test [10] was 2 throughout. In test [9], this molecule had a Kd of 27 nM.
